Measured values: the nanobody polyreactivity screen of Harvey et al. (2022)

Assay: yeast display, Sf9 membrane polyspecificity reagent, FACS + sequencing; frameworks hold sequencing errors
In short: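 A synthetic nanobody library was expressed on Saccharomyces cerevisiae BJ5465 by galactose induction for 36–48 hours. The library was stained for 1 hour at 4 °C with 10% biotinylated, detergent-solubilized Sf9 membrane reagent and enriched with streptavidin microbeads before FACS. Low and high (top ~1%) gates were set on anti-HA fluorescence for expression and streptavidin fluorescence for reagent binding, and each polyreactivity label reflects the gate of origin.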

Row | Sequence | polyreactivity (PSR sort gate)
1 | QDQLVESGGGLVQAGGSLRLSCAASGRIFPYNAMGWYRQAPGKERELVAGISRTGGSTYYADSVKGRFTISRDNAKNTVYLQMNSLKPEDTAVYYCAARPGAHPDRLDYWGQGTQVTVSS | low polyreactivity
2 | QDQLVESGGGLVQAGGSLRLSCAASGRIFVYNDMGWYIQAPGKERELVAAISSVGTTYYADSVKGRFTISRDNAKNTVYLQMNSLIPEDTAVYYCAVTRYQSPPRYYYWGQGTQVTVSS | low polyreactivity
3 | QDQLVESGGGLVQAGGSLRLSCAASGRILKYNAMGWYRQAPGKERELVAAISYRGGSTYYADSVKGRFTISRDNAMNTVYLQMNSLKPEDTAVYYCNAGGGILNGPLFDYWGQGTQVTVSS | low polyreactivity
4 | QDQLVESGGGLVQAGGSLRLSCAASGRNFKYYGMRRYRQAPVKERDLVAAISRGSSTNYADSVKGRFTISRDNAKKTVYLQMYSLKPEDTAVYYCAVSLRRGGSGYAYDNWGQGTQVTVSA | high polyreactivity
5 | QDQLVESGGGLVQAGGSLRLSCAASGRTCGYYTMGWYRQAPGKERELVATISSDGTTNYADSVKGRFTISRDNAKNTVYLQMNSLKQEDTAGYYCNADFRLQYYYRIYDYWGQGTQVTVSS | low polyreactivity
6 | QDQLVESGGGLVQAGGSLRLSCAASGRTFASYAMGWYRQAPGKERELVAAITSSGGRTYYADSVKGRFTISRDYAKNTVYLQMNSLKPEVTAVYYCAVRGTKGYGYWGQGTQVTVSS | high polyreactivity
7 | QDQLVESGGGLVQAGGSLRLSCAASGRTFGDKALGWYRQAPGKERELVAAISWSGGRTYYADSVKGRFTISRDYGKNTVYLQMNSLKPEDTAVYYCAARNNRYPLYNYWGQGTQVTVSS | low polyreactivity
8 | QDQLVESGGGLVQAGGSLRLSCAASGRTFGTNARGWYRQAPGKERELVAGINYSDGSTYYADSVKGRFTISRDNAKNTVYLQMNSLKPEVTAVYYCAADPGWAWWELYYWGQGTQVTVSS | low polyreactivity
9 | QDQLVESGGGLVQAGGSLRLSCAASGRTFIRNAMGWYRQAPGKERELVAAITNSGGSTYYADSVKGRFTISRDNAKNTVYLQMNSLNPEDTAVYDCNRVYRSHRPYTYPFSYDYWGQGTQVTVSS | high polyreactivity
10 | QDQLVESGGGLVQAGGSLRLSCAASGRTFKGYAMGWYRQAPGKERELVAAIDSDGSTSYADSVKGRFTISRDNAKNTVYLQMISLKPEDTAVYYCAAAGQRPYEKGDYWGQGTQVTVSS | low polyreactivity
11 | QDQLVESGGGLVQAGGSLRLSCAASGRTFPRNAMGWYRQAPGKERELVAAISSTGDSTYYADSVKGRFTISRDNAKNTVYLQMNSLKPEDTAVYYCHYPYDYWGQGTQVTVSS | low polyreactivity
12 | QDQLVESGGGLVQAGGSLRLSCAASGRTFYFYAMGWYRQAPGKERELVAAISWTGGITYYADSVKGRFTISRDNAKNTVYLQMNSLKPEDTAVYYCAKKYYKVHKFDYWGQGTQVTVSS | low polyreactivity
13 | QDQLVESGGGLVQAGGSLRLSCAASGRTFYYYTMGWDRQAPGKERELVAAISRRGGRTYYADSVKRRFTISRDNAKNTVYLQMTSLKPEDTAVYYCAADRDHVVDFDYWGQGTQVTVSS | high polyreactivity
14 | QDQLVESGGGLVQAGGSLRLSCAASGRTIVLNPMGWYRQAHGKERELVAAISSGGSTNYADSVKGRFTISRDNAKNTVYLQMNSLNPEDTAVYYCAGQDVNLYSAYYYWGQGTQVTVSS | low polyreactivity
15 | QDQLVESGGGLVQAGGSLRLSCAASGRTLGKYAMGWSRQAPGQERELVAAITQRGGITYYADSVQGRFTISRDNAKNTVYLQMNSLKPEDTAVYYCAASLYSYRSPYTFYYWGQGTQVTVSS | high polyreactivity
16 | QDQLVESGGGLVQAGGSLRLSCAASGRTLVGNAMGLYRQAHGKERELVAAISLSDDITYYADSVKGRFTISRDNAKKTFYLQMNSLKPEDTAVYYCAAVYPGDSDFLGSYEESDSWGQGTQVTVSS | low polyreactivity
17 | QDQLVESGGGLVQAGGSLRLSCAASGRTLVHYGMGRYRQAPRKERELVAVITSGGSTYYADSVKARFTISRDNAKNTVYLQMNSLKPEDTAVYYCAAYKERFYEEYGYWGQGTQLTVSS | low polyreactivity
18 | QDQLVESGGGLVQAGGSLRLSCAASGSIFEINAMGWYRQSPGKERELVAAITGSGGSTHYADSVKGRFTISRDNAKNTVYLQMNSLKPEDTAVYYCAAVPRYQYGYWGQGTQVTVSS | low polyreactivity
19 | QDQLVESGGGLVQAGGSLRLSCAASGSIFGRNTMGWYRQAPGKERELVAAISSSGGSTRYADSVKGRFTISRDNAKNTVYLQMNSLKPEDTAVYYCNAKRYGGRQASYNLGDYWGQGTEVTVSS | high polyreactivity
20 | QDQLVESGGGLVQAGGSLRLSCAASGSIFGVYAMGWYRQAPGKEGELVAAISWTDGTTYYADSVKGRFTISRDNAKNTVYLQMNSLKQEDTAVYYCAVTYPRVAKVMYYWGQGTQVNVSS | high polyreactivity
21 | QDQLVESGGGLVQAGGSLRLSCAASGSIFGVYAMGWYRQAPGKERELVAVISFNSGSTNYADSVKGRFTISRDNAKNTVYLQMNSLKPEDTAVYYCNSDAWHETQVSGYSWGQGTQVTVSS | low polyreactivity
22 | QDQLVESGGGLVQAGGSLRLSCAASGSIFKYNMGWYRQAPGKERELVAAISRGGSTYYADSVKGRFTISRDNAKNTVYLQMTRLKPEDTAVYYCNAATSRRFSGMNYCGQGTQVTVSS | high polyreactivity

Row | Sequence | polyreactivity (PSR sort gate)
23 | QDQLVESGGGLVQAGGSLRLSCAASGSIFPHNAKGSYRQAPGKERELVASITSRGGITYYADSVKGRFTISRDNAKNTVYLQMNSLKPEDTAVYYCAADTYTDGYDYWGQGTQVTVSS | low polyreactivity
24 | QDQLVESGGGLVQAGGSLRLSCAASGSIFRVYVMGWYRQAPGKERELVAAITSSDGSTYYADSVKGRFTISRDNAKNTVYLQMNSLKPEDTAVYYCNAEFYSPRVVVPRYWYPGDYWGQGTQVTVSS | low polyreactivity
25 | QDQLVESGGGLVQAGGSLRLSCAASGSIFSYYAMGWYRQAAGKERELVAAINDGGGSTYYADSVKGRFTISRDNAKNTVYLQMNSLKPEDTAVYYCAAEWSWGPYRYDYWGQGTQVTVSS | high polyreactivity
26 | QDQLVESGGGLVQAGGSLRLSCAASGSIFWVYVMGWYSQAPGKERELVAAITNGGSTDYADSVKGRFTISRDNAKNTVYLQLNSLKPEDTAVYYCAKRSPIWGRILITYDYWGQGTQVTVSS | low polyreactivity
27 | QDQLVESGGGLVQAGGSLRLSCAASGSIIDYYDMGWYRQAPGKEREFVAAINWSGGNTHYADSVKGRFTISRDNAKNTVYLQMNSLKPEDTAVYYCAVDVKIGTDFIGVVIPGDYWGQGTQVTVSS | low polyreactivity
28 | QDQLVESGGGLVQAGGSLRLSCAASGSIIGWYAMGWYRQARGKERELVAAITFSSVSTYYADSVKGRFTISRDNAKNTVYLQMNSLKPEDTAVYYCAAVVYYTFDYCGQGTQVTVSS | low polyreactivity
29 | QDQLVESGGGLVQAGGSLRLSCAASGSILAYNAMGWYRQAPGKERQLVAAIRLSGGSTYYADSVKGRFTISRDNAKNTVYLQMNSLKPEDTAVYYCARRYYRYDTRKYNYWGQGTQVSVSS | high polyreactivity
30 | QDQLVESGGGLVQAGGSLRLSCAASGSILRQYAMGWYRQAPGKERELVATITGDGSTNYADSVKGRFTISRDNAKNTVYLQMHSLKPEDTAVYYCAVIGYHYSAISPPSQTRQGYDYWGQGTQVTVSS | low polyreactivity
31 | QDQLVESGGGLVQAGGSLRLSCAASGSISVANAMGWYRQAPGKERELVAAISWRSDSTYYADSVKGRFTISRDNAKNTVYLQMNSLKPEDTAVYYCAASQYPLIWYDYWGQGTQVTVSS | low polyreactivity
32 | QDQLVESGGGLVQAGGSLRLSCAASGSNFVPYAMGWYRQSPGKERELVAAISGSGTRTYYAYSVKGRFTISRDNSKNTVYLQMNSLKPEDTAVYYCDADWRRSVGYTMGYWGQGTQVTVSS | high polyreactivity
33 | QDQLVESGGGLVQAGGSLRLSCAASGSNYKYYPMGWYRTAPGKERELVAAITWGGGSTYYADSVKGRFTISRDNAKNTFYLQLNSLKPEDTAVYYCAASLFPYQYDAYFSHRKAFYYWGQGTQVTVSS | high polyreactivity
34 | QDQLVESGGGLVQAGGSLRLSCAASGSRLGGYAMGWYRQAPGKERELVAAITWNGGRTYYADSVKWRFTISRDNAKNTVYLQMNILKPEDTAVYYCAADYSKGYEYWGQVTQVTVSS | high polyreactivity
35 | QDQLVESGGGLVQAGGSLRLSCAASGSTFAFKTMGWYRQAPGKERELVAGISSNGGRTYYADSVKGRFTISRDNAKNTVYLQMNSLKPEDTAVYYCNALRRYVSVRPTKSDYWGQGTQVTVSS | high polyreactivity
36 | QDQLVESGGGLVQAGGSLRLSCAASGSTFEVYAMGWYRQAPGKERELVAGITRGGSTNYADSVKGRFTISRDNAKNTVYLQMNSLKPEDTAVYYCAAPKYLGTDEYDYWGQGTQVTVSS | low polyreactivity
37 | QDQLVESGGGLVQAGGSLRLSCAASGSTFGYYAMGWYRQAPGKERELVAAITSGASTNYADSVKGRFTISRDNAKNTVYLQMNSLKPEDTAVYYCAAGFQTRTPLNEFDYWGQGTQVTVSS | low polyreactivity
38 | QDQLVESGGGLVQAGGSLRLSCAASGSTFKYYGMGWYRQAPGKERELVAAITSGGSTYDADSVKGRFTISRDNAKNTVYLQMNSLKPEDTAVYYCNTTAYSPTPYDYWGQGTQVTVSS | low polyreactivity
39 | QDQLVESGGGLVQAGGSLRLSCAASGSTFPFYAMGWDRQAPGKERELVAAITSGGSTYADSVKGRFTISRDNAKNTVYLQMNSLKPEDTAVYYCAAVGWFADCLFSDIKGYSWGQGTPVTVSS | low polyreactivity
40 | QDQLVESGGGLVQAGGSLRLSCAASGSTFQYYTMGWYRQAPGKERELVAAISGDGGNTYYADSVKGRFTISRDNAKNTVYLQMNRLKPEDTAVYYCNADGLILYDYWGQGTQVTVSW | low polyreactivity
41 | QDQLVESGGGLVQAGGSLRLSCAASGSTFRHYAMGWYRQAPGQESELVAAISSRGGRTYYADSVKGRFTISRDNAKNTVYFQMNSLKPEDTAVYYCAADRFRLYVGGWWYDYWGLGTQVTVSS | high polyreactivity
42 | QDQLVESGGGLVQAGGSLRLSCAASGSTFSFYAMGWTRQAPGKERELVAAISRSGGSTFYADSVKGRFTISRDNAKNTVYLQMNSLKPEDSAVYYCAAYGGLQSRYYYWGQGTQVTVSS | high polyreactivity
43 | QDQLVESGGGLVQAGGSLRLSCAASGSTFSRYAMGWYRQAPGKERELVAAITSSGGSTYYADSVKGRFTISRDNAKNTVYLQMNSLKPEDTAVYYCAASYQVRYDYWGQGTQVTVSS | high polyreactivity
